Consider one protein from article PMC8289115, “Liquid–liquid phase separation of full-length prion protein initiates conformational conversion in vitro” (The Journal of Biological Chemistry, 2021).

The series deals with the molecule itself. Briefly: SDS-PAGE and Western blotting of aged gels collected by centrifugation. (Immunoblotting shows a protein as a band on a membrane.)

B1: full-length human recombinant prion protein (residues 23-231) (natural protein)
chain: not shown
notes: also called rPrP; hu-PrP; source: E. coli DH5α, purified
With B1, the binding result was “binds”.
